The term Kd denotes the equilibrium constant for the complex coming apart.

The values that follow come from publication PMC2686265, “ATP and MO25α Regulate the Conformational State of the STRADα Pseudokinase and Activation of the LKB1 Tumour Suppressor” (PLoS Biology, 2009).

Experiment [1] addresses T1, MO25α (WT) (Homo sapiens, UniProt Q7RTN6+Q9Y376).
T1 construct: wild-type and mutant forms of STRADα (residues 54–431) and MO25α (residues 1–341) were expressed individually as GST fusion proteins in E. coli; GST (cleaved yes); made in house; host or cells: E. coli (STRADα: BL21(DE3)pLysS, co-expressed with MO25α and then separated from it)
T1 sequence (Q9Y376 1-341): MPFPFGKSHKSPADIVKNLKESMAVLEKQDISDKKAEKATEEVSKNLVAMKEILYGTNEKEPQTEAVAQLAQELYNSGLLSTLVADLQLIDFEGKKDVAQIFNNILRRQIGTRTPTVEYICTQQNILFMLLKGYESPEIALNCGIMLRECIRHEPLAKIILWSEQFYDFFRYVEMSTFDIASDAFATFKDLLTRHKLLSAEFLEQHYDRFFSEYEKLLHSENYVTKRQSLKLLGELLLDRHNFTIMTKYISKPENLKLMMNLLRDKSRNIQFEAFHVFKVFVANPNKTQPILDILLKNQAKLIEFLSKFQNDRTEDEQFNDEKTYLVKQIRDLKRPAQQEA
T1 sequence (Q7RTN6 59-431): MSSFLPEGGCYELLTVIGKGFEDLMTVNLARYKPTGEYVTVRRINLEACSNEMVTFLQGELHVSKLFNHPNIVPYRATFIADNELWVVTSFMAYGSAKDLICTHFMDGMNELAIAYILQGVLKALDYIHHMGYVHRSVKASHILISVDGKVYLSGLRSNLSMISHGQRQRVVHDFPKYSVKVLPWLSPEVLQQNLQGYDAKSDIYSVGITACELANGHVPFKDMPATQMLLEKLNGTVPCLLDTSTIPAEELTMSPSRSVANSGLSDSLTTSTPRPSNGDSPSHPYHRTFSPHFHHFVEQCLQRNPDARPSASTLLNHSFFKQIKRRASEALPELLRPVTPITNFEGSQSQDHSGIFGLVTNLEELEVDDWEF
Description: SPR BIAcore binding of STRADα to immobilised MO25α. To be noted: + ATP + Mg2+. The method, then:
(§1) SPR measurements were performed using a BIAcore T100 instrument. Wild-type and mutant forms of MO25α were immobilized on a CM5 sensor chip using standard amine-coupling chemistry, and 10 mM HBS (pH 7.4) was used as the running buffer. The carboxymethyl dextran surface was activated with a 7-min injection of a 1∶1 ratio of 0.4 M 1-ethyl-3-(3-dimethylaminopropyl) carbodiimide hydrochloride (EDC)/0.1 M N-hydroxy succinimide (NHS). MO25α (5–7 µM) was coupled to the surface with a 1-min injection of protein diluted in 10 mM sodium acetate (pH 5.5). Remaining activated groups were blocked with a 7-min injection of 1 M ethanolamine (pH 8.5). MO25α was immobilised on three flow cells of a CM5 chip at densities 1,700–2,500 RU performed at 25°C, leaving one flow cell as a reference to subtract any possible nonspecific binding.
(§2) STRADα was prepared in running buffer containing 50 mM Tris (pH 7.8), 50 mM NaCl, 270 mM sucrose, 1 mM DTT, 0.005% P20, and 0.1 mg/ml BSA in the presence/absence of 100 µM ATP and 1 mM MgCl2, and injected over all four surfaces at nine concentrations of a 3-fold concentration series (5 µM to […]). Each concentration was injected in duplicate over all surfaces. Association was measured for 60 s at a flow rate of 50 µl/min, and dissociation was measured for 3 min. STRADα dissociated completely from the MO25α surfaces, thus eliminating the need for a regeneration step.
(§3) Data were analysed using Scrubber 2 (BioLogic Software) and CLAMP software. Data were double referenced to the reference surface to subtract any possible nonspecific binding and to the blank buffer injections to subtract drift of the target from surface. Data were fitted to a 1∶1 or 2∶1 binding site model where appropriate. Kinetic association (k a) and dissociation rate (k d) constants were separately determined from the BIAcore sensorgrams, and equilibrium dissociation constants (K d) were calculated as: K d1 = k d1/k a1 and K d2 = k d2/k a2. Equilibrium constants were also independently calculated from a saturation binding curve, by fitting the measured response (R) from specific binding to the following equation: R = (R max1[STRAD]/([STRAD]+K d1))+(R max2[STRAD]/([STRAD]+K d2)), where R max1 and R max2 are the relative maximal changes in response for sites 1 and 2, respectively, and K d1 and K d2 are the equilibrium dissociation constants for sites 1 and 2, respectively. Dose-response curves for calculating the Hill slope (H) of the data were fitted with the following equation: R = minimum+(maximum−minimum)/(1+10^((logEC50−[STRAD])×H)) using GraphPad-PRISM software.
In general terms: In SPR one partner is held on a chip, and binding of the other changes the refractive index at the surface.

The target in experiment [2] is T2, MO25α (M260A) (Homo sapiens, UniProt Q7RTN6+Q9Y376, M260A).
T2 construct: wild-type and mutant forms of STRADα (residues 54–431) and MO25α (residues 1–341) were expressed individually as GST fusion proteins in E. coli; GST (cleaved yes); made in house; host or cells: E. coli
T2 sequence (Q9Y376 1-341 M260A): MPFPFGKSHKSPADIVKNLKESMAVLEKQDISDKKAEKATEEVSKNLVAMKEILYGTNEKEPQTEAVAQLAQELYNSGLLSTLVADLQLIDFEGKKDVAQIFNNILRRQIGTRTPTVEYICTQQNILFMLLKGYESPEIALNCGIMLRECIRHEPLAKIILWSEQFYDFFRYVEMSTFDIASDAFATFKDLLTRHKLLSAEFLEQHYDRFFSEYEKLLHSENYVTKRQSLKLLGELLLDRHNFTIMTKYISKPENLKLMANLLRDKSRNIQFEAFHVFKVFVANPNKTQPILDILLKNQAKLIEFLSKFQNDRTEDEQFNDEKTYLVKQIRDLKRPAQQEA
T2 sequence (Q7RTN6 59-431): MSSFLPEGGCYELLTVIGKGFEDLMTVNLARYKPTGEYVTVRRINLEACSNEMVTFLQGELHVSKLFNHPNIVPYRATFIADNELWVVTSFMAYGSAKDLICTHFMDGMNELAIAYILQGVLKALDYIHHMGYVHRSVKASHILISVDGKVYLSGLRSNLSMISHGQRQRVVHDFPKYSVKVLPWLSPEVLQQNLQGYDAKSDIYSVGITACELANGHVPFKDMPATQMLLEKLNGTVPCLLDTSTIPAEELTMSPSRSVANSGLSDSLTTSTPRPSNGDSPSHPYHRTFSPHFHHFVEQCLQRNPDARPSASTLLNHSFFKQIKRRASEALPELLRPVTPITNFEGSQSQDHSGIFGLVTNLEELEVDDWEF
The experiment is described as follows: SPR BIAcore binding of STRADα to immobilised MO25α. To be noted: + ATP + Mg2+. The method, then: as §1, §2, §3

The target in experiment [3] is T3, MO25α (R227A) (Homo sapiens, UniProt Q7RTN6+Q9Y376, R227A).
T3 construct: wild-type and mutant forms of STRADα (residues 54–431) and MO25α (residues 1–341) were expressed individually as GST fusion proteins in E. coli; GST (cleaved yes); made in house; host or cells: E. coli
T3 sequence (Q9Y376 1-341 R227A): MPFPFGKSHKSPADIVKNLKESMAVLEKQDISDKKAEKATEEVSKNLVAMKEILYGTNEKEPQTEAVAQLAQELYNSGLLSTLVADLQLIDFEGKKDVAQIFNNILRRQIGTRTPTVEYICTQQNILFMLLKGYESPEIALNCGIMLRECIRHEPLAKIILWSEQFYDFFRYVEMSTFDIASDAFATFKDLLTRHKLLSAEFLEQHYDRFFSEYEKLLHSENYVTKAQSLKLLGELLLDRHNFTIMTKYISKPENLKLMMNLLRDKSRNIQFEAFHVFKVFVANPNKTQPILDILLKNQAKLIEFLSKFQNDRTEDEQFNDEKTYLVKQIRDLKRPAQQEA
T3 sequence (Q7RTN6 59-431): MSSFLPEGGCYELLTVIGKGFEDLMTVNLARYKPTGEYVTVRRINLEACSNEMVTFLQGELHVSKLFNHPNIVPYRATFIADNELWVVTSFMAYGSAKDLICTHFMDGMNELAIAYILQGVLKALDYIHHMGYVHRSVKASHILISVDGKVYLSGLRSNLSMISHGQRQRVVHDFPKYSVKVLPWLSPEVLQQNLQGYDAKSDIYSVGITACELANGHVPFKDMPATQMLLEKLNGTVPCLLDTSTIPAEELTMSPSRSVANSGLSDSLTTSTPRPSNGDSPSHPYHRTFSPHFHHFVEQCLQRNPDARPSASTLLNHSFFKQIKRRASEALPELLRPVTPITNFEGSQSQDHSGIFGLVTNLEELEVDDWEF
The experiment is described as follows: SPR BIAcore binding of STRADα to immobilised MO25α. Particulars: + ATP + Mg2+. The method, then:
as §1, §2, §3

The target in experiment [4] is T4, untagged STRADα (residues 59–431) (human, UniProt Q7RTN6 59-431).
T4 construct: STRADα, human, residues 59–431; also called STRADα lacking the His tag
T4 sequence (looked up): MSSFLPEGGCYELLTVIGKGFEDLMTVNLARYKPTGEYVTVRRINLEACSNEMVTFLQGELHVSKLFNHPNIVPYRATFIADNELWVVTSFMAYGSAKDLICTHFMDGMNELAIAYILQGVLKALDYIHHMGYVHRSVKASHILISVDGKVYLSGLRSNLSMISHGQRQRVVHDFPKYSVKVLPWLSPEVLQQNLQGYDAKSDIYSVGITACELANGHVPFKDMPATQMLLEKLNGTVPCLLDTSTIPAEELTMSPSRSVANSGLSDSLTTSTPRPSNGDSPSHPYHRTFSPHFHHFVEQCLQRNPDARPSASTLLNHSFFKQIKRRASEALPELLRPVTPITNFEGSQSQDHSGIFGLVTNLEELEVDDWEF
Description: SPR; BIAcore T100, MO25α amine-coupled to CM5 chip, STRADα injected (5 µM to 0.3 nM), 25°C, 50 mM Tris pH 7.8, 50 mM NaCl, 270 mM sucrose, 1 mM DTT, 0.005% P20, 0.1 mg/ml BSA; without ATP; Kd = kd/ka. To be noted: both partners purified.

B1: His-STRADα: STRADα (residues 59–431) with N-terminal 6-His tag, SPR analyte (protein)
chain: MSSFLPEGGCYELLTVIGKGFEDLMTVNLARYKPTGEYVTVRRINLEACSNEMVTFLQGELHVSKLFNHPNIVPYRATFIADNELWVVTSFMAYGSAKDLICTHFMDGMNELAIAYILQGVLKALDYIHHMGYVHRSVKASHILISVDGKVYLSGLRSNLSMISHGQRQRVVHDFPKYSVKVLPWLSPEVLQQNLQGYDAKSDIYSVGITACELANGHVPFKDMPATQMLLEKLNGTVPCLLDTSTIPAEELTMSPSRSVANSGLSDSLTTSTPRPSNGDSPSHPYHRTFSPHFHHFVEQCLQRNPDARPSASTLLNHSFFKQIKRRASEALPELLRPVTPITNFEGSQSQDHSGIFGLVTNLEELEVDDWEF
modifications: lysines chemically methylated in the 2.35 Å crystal form only; left off: His6 with TEV site (…), N-terminal, kept
notes: STRADα (residues 59–431) with N-terminal 6-His tag, SPR analyte
In the case of B1, the kd1 is given as 0.55 (3.8 × 10−3) s−1 in experiment [1], 0.77 (4.6 × 10−3) s−1 in experiment [2] and 1.61 (7.0 × 10−3) s−1 in experiment [3]. Further, the kd2 in experiment [1] is listed as 0.08 (4.8 × 10−4) s−1; in experiment [2], 0.11 (5.3 × 10−4) s−1.

B2: MO25α (WT) (residues 1–341) (natural protein, human, UniProt Q9Y376 1-341, looked up)
chain: MPFPFGKSHKSPADIVKNLKESMAVLEKQDISDKKAEKATEEVSKNLVAMKEILYGTNEKEPQTEAVAQLAQELYNSGLLSTLVADLQLIDFEGKKDVAQIFNNILRRQIGTRTPTVEYICTQQNILFMLLKGYESPEIALNCGIMLRECIRHEPLAKIILWSEQFYDFFRYVEMSTFDIASDAFATFKDLLTRHKLLSAEFLEQHYDRFFSEYEKLLHSENYVTKRQSLKLLGELLLDRHNFTIMTKYISKPENLKLMMNLLRDKSRNIQFEAFHVFKVFVANPNKTQPILDILLKNQAKLIEFLSKFQNDRTEDEQFNDEKTYLVKQIRDLKRPAQQEA
notes: MO25α, human, residues 1–341 (full length); also called MO25α (WT, wild type); wild-type MO25α; source: E. coli, expressed individually as GST fusion, purified on glutathione-Sepharose, eluted with PreScission protease
Regarding B2, binding in experiment [4] was put at a Kd of 3.8 µM.

B3: MO25α (M260A) (residues 1–341) (natural protein, human, UniProt Q9Y376 1-341, looked up)
chain: MPFPFGKSHKSPADIVKNLKESMAVLEKQDISDKKAEKATEEVSKNLVAMKEILYGTNEKEPQTEAVAQLAQELYNSGLLSTLVADLQLIDFEGKKDVAQIFNNILRRQIGTRTPTVEYICTQQNILFMLLKGYESPEIALNCGIMLRECIRHEPLAKIILWSEQFYDFFRYVEMSTFDIASDAFATFKDLLTRHKLLSAEFLEQHYDRFFSEYEKLLHSENYVTKRQSLKLLGELLLDRHNFTIMTKYISKPENLKLMANLLRDKSRNIQFEAFHVFKVFVANPNKTQPILDILLKNQAKLIEFLSKFQNDRTEDEQFNDEKTYLVKQIRDLKRPAQQEA
notes: MO25α, human, residues 1–341 (full length), M260A; source: E. coli, expressed individually as GST fusion, purified on glutathione-Sepharose, eluted with PreScission protease
For B3, in experiment [4], the binding result is listed as “binds”.
